In patent publication US20180079819A1 (IMMUNOGEN, published 2018):
Where two headings read alike, the source gives them in different places.

Legend:
[1] = biological target: T1, human CD123 (IL-3Rα, interleukin-3 receptor alpha chain) (human, UniProt P26951 19-378); test: flow cytometry on TF-1 cells; EC50 of the binding curve taken as apparent Kd; TF-1 cells
T1 construct: CD123 on human cell lines (TF-1, HNT-34, MOLM-13 and other AML, B-ALL, CML and NHL lines) or on 300-19 cells stably expressing human CD123; also called CD123 antigen; human CD123 antigen
Experimental: Binding affinity was tested by flow cytometry using purified antibodies. […] TF-1 cells (5×10⁴ cells per sample) were incubated with varying concentrations of murine antibodies in 200 μL FACS buffer (DMEM medium supplemented with 2% normal goat serum). The cells were then pelleted, washed twice, and incubated for 1 hr with 100 μL of phycoerythrin (PE)-conjugated goat anti-mouse IgG-antibody (Jackson Laboratory). The cells were pelleted again, washed with FACS buffer and resuspended in 200 μL of PBS containing 1% formaldehyde. Samples were acquired using a FACSCalibur flow cytometer with the HTS multiwell sampler, or a FACS array flow cytometer, and analyzed using CellQuest Pro (all from BD Biosciences, San Diego, US). For each sample the geomean fluorescence intensity for FL2 was calculated and plotted against the antibody concentration in a semi-log plot. A dose-response curve was generated by non-linear regression and the EC₅₀ value of each curve, which corresponds to the apparent dissociation constant (Kd) of each antibody, was calculated using GraphPad Prism v4 (GraphPad software, San Diego, Calif.).

[2] = biological target: T1, human CD123 (IL-3Rα, interleukin-3 …); test: flow cytometry on HNT-34 cells; EC50 of the binding curve taken as apparent Kd
[3] = biological target: T1, human CD123 (IL-3Rα, interleukin-3 …); test: cell-based or functional assay
[4] = biological target: T1, human CD123 (IL-3Rα, interleukin-3 …); test: flow cytometry on HNT-34 cells; apparent Kd
[5] = biological target: T1, human CD123 (IL-3Rα, interleukin-3 …); test: flow cytometry on MOLM-13 cells; apparent Kd; MOLM-13 cells
[6] = biological target: T1, human CD123 (IL-3Rα, interleukin-3 …); test: flow cytometry on HNT-34 cells, against muCD123-3 of Example 5
[7] = biological target: T2, extracellular domain of CD123/IL-3Rα (residues 1-306), histidine tagged (human, UniProt P26951 19-306); test: ELISA on plate-coated His-tagged protein, A450
T2 construct: Expressed in HEK 293T cells, purified on Ni Sepharose, coated on ELISA plates; also called wild type IL-3Rα; wild-type IL-3Rα construct
T2 sequence: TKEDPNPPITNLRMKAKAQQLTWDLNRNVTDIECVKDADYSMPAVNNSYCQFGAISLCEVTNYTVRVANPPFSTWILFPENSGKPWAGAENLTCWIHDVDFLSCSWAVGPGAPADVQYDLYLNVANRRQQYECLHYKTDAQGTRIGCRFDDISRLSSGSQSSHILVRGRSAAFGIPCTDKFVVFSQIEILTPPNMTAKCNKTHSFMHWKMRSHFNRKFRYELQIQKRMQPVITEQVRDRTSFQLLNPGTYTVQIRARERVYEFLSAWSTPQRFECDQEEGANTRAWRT
Experimental: (§1) The chimeric and humanized anti-IL3Rα antibodies were tested in enzyme-linked immunosorbent assay (ELISA) format for binding to the IL-3Rαproteins described above. Briefly, each His-tagged IL-3Rαprotein purified by Ni Sepharose excel chromatography was diluted to 1 ng/mL in 50 mM sodium bicarbonate buffer pH 9.6, and 100 μL was added to each well. After a 16 hr incubation at 4° C., the plates were washed with Tris-buffered saline with 0.1% Tween-20 (TBST), then blocked with 200 μL blocking buffer (TBS with 1% BSA). Next, 100 μL of primary antibody, serially diluted in blocking buffer, was added in duplicate to the ELISA wells and incubated at room temperature for 1 hr. The plates were then washed 3 times with TBST before adding 100 μL of anti-human IgG (H+L)-HRP (Jackson ImmunoResearch) to each well. Once again the plates were incubated for 1 hr at room temperature followed by three washes with TBST. Finally, 100 μL of TMB one component HRP microwell substrate (Surmodics) was added to each well and incubated for 5 min. The reaction was stopped by adding 100 μL stopping solution (Surmodics) and absorbances were read at 450 nm.
(§2) Binding of the CD123 antibodies to the chimeric IL-3Rαproteins was evaluated in comparison to the wild type IL-3Rα.

[8] = biological target: T3, IL3Rα (101-306) chimeric receptor protein: GMRα residues 1-114 fused to IL3Rα residues 101-306, His-tagged (human, UniProt P15509 23-114); test: ELISA on plate-coated His-tagged protein, A450
T3 construct: range 1-114; also called CRM domain of IL3Rα construct
T3 sequence: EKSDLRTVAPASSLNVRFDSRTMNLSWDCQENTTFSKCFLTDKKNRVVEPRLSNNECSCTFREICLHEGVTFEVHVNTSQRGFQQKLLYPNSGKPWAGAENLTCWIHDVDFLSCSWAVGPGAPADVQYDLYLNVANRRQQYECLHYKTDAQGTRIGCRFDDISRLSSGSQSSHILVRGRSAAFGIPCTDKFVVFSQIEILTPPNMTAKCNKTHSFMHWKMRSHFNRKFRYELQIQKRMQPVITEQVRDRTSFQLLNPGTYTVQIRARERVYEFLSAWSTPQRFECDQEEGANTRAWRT
Experimental: as §1, §2

[9] = biological target: T1, human CD123 (IL-3Rα, interleukin-3 …); test: flow cytometry on HNT-34 cells, PE-conjugated goat anti-human secondary
[10] = biological target: T1, human CD123 (IL-3Rα, interleukin-3 …); test: flow cytometry on HNT-34 cells, apparent Kd against that of 7G3
[11] = biological target: T1, human CD123 (IL-3Rα, interleukin-3 …); test: flow cytometry on HNT-34 cells, PE-conjugated goat anti-human secondary; remark: listed apart in the source
[12] = biological target: T1, human CD123 (IL-3Rα, interleukin-3 …); test: cell-based or functional assay; remark: listed apart in the source

B1: muCD123-14 (antibody, mouse IgG1, kappa, V domains shown)
VH: EVKLVESGGDLVKPGGSLKLSCAASGFTFSNYAMSWVRQNSEKRLEWVATINSGGSFTYYPDSVKGRFTISRDNAKDSLYLQMSSLNSEDTAMYYCARQSEAYYGYDKRTWFAYWGQGTLVTVSS
VL: DILLTQSPAILSVSPGTRVSFSCRASQSVGTSIHWYQQRPNGFPRLLIKYASESISGIPSRFSGSGSGTDFTLNINSVESEDIADYYCQQSKSWPLTFGAGTKLELKR
notes: Murine monoclonal antibody purified from hybridoma supernatant; also called CD123Mu-14; CD123 Mu-14
Kd [1]: 300 pM | Kd [2]: 500 pM | IC50, inhibition of IL-3 dependent proliferation of TF-1 cells [3]: 80 pM

B2: muCD123-3 (antibody, mouse IgG1, kappa, V domains shown)
VH: EFQLQQSGPEVVKPGASVKMSCKASGYTFTSYVMHWMKQKPGQGLEWIGYIKPYKDGTKYNEKFKGKATLISDKPSSTAYMELSSLTSEDSAVYYCAREGENGYYDAMDYWGQGTSVTVSS
VL: DIQMTQSPSSLSASLGGKVTITCKASQDINKYIAWYQHKPGKGPRLLIHYTSTLQPGIPSRFSGSGSGRDYSFSISNLEPEDIATYYCLQYDNLLYTFGGGTKLELKR
notes: Murine monoclonal antibody purified from hybridoma supernatant; also called CD123Mu-3; CD123 Mu-3
Kd [1]: 300 pM | Kd [2]: 200 pM | IC50, inhibition of IL-3 dependent proliferation of TF-1 cells [3]: 260 pM

B3: chCD123-3 (antibody, human IgG1, V domains shown)
VH: EFQLQQSGPEVVKPGASVKMSCKASGYTFTSYVMHWMKQKPGQGLEWIGYIKPYKDGTKYNEKFKGKATLISDKPSSTAYMELSSLTSEDSAVYYCAREGENGYYDAMDYWGQGTSVTVSS
VL: DIQMTQSPSSLSASLGGKVTITCKASQDINKYIAWYQHKPGKGPRLLIHYTSTLQPGIPSRFSGSGSGRDYSFSISNLEPEDIATYYCLQYDNLLYTFGGGTKLELKR
notes: human IgG1 and Kappa are spelled out for chCD123-6 and the same vectors and constant regions were used; also called chimeric CD123-3 antibody
Kd [4]: 100 pM | Kd [5]: 200 pM | fold difference of Kd from the murine counterpart [6]: ≤ 2.5 fold | IC50, inhibition of IL3-dependent proliferation of TF-1 cells [3]: 100 pM | EC50 [7]: 274 pM | EC50 [8]: 852 pM

B4: huCD123-6Gv4.7S3 (antibody, human IgG1, kappa)
heavy: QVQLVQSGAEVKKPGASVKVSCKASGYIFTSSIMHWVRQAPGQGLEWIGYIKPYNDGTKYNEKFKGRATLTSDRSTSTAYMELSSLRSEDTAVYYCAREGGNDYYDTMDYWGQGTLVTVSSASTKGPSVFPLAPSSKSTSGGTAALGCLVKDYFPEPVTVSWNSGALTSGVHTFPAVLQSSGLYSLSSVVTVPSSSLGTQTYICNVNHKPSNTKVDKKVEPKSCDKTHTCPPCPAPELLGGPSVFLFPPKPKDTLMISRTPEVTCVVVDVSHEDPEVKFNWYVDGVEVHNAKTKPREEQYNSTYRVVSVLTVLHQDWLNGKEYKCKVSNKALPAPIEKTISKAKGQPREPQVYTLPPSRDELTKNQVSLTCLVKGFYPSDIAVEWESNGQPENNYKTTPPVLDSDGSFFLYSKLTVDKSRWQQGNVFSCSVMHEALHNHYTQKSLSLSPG
light: SIQMTQSPSSLSASVGDRVTITCRASQDINSYLSWFQQKPGKAPKTLIYRVNRLVDGVPSRFSGSGSGNDYTLTISSLQPEDFATYYCLQYDAFPYTFGQGTKVEIKRTVAAPSVFIFPPSDEQLKSGTASVVCLLNNFYPREAKVQWKVDNALQSGNSQESVTEQDSKDSTYSLSSTLTLSKADYEKHKVYACEVTHQGLSSPVTKSFNRGEC
notes: also called huCD123-6Gv4.7 clone (S3); CD123-6G4.7S3
EC50 (read off the curve) [9]: ~50 pM | Kd [4]: ~60 pM | fold higher affinity than the 7G3 antibody [10]: ≥ 30 fold | IC50, inhibition of IL-3 dependent proliferation of TF-1 cells [3]: 20 pM

B5: huCD123-6Gv4.7 (antibody, human IgG1, kappa)
heavy: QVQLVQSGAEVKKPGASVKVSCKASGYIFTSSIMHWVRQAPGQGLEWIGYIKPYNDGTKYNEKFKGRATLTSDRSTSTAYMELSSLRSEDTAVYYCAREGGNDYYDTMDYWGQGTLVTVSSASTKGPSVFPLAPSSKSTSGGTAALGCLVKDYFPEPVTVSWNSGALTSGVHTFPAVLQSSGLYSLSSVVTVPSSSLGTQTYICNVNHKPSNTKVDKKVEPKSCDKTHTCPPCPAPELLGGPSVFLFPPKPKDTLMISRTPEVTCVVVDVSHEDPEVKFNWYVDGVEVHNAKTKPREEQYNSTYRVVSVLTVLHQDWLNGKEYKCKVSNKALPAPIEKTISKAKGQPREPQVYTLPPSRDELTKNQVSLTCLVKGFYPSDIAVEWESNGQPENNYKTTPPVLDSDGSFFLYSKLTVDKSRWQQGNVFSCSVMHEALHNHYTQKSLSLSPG
light: DIQMTQSPSSLSASVGDRVTITCRASQDINSYLSWFQQKPGKAPKTLIYRVNRLVDGVPSRFSGSGSGNDYTLTISSLQPEDFATYYCLQYDAFPYTFGQGTKVEIKRTVAAPSVFIFPPSDEQLKSGTASVVCLLNNFYPREAKVQWKVDNALQSGNSQESVTEQDSKDSTYSLSSTLTLSKADYEKHKVYACEVTHQGLSSPVTKSFNRGEC
notes: CDR-grafted humanized antibody; also called version 4.7 (VL Gv4 and VH Gv7)
EC50 [7]: 106 pM | EC50 [8]: 145 pM

B6: huCD123-6Gv4.7S2 (antibody, human IgG1, kappa)
heavy: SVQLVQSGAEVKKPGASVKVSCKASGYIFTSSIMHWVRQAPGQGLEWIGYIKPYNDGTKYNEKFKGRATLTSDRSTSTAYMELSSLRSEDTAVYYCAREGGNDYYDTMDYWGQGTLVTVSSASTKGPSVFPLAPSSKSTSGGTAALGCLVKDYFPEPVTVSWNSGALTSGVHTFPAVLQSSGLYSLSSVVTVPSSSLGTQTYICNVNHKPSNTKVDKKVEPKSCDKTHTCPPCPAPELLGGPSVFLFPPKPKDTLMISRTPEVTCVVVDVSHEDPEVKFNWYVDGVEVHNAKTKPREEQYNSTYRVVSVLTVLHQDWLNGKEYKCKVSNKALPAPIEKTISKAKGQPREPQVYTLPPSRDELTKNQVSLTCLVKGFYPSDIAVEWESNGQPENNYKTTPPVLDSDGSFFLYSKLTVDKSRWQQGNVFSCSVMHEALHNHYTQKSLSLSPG
light: DIQMTQSPSSLSASVGDRVTITCRASQDINSYLSWFQQKPGKAPKTLIYRVNRLVDGVPSRFSGSGSGNDYTLTISSLQPEDFATYYCLQYDAFPYTFGQGTKVEIKRTVAAPSVFIFPPSDEQLKSGTASVVCLLNNFYPREAKVQWKVDNALQSGNSQESVTEQDSKDSTYSLSSTLTLSKADYEKHKVYACEVTHQGLSSPVTKSFNRGEC
notes: CDR-grafted humanized antibody with an engineered N-terminal Ser on the heavy chain; also called huCD123-6Gv4.7 clone (S2)
Kd [4]: ~60 pM | fold higher affinity than the 7G3 antibody [10]: ≥ 30 fold | IC50, inhibition of IL-3 dependent proliferation of TF-1 cells [3]: 20 pM

B7: huCD123-6Gv4.7-CysMab-D5 (antibody)
heavy: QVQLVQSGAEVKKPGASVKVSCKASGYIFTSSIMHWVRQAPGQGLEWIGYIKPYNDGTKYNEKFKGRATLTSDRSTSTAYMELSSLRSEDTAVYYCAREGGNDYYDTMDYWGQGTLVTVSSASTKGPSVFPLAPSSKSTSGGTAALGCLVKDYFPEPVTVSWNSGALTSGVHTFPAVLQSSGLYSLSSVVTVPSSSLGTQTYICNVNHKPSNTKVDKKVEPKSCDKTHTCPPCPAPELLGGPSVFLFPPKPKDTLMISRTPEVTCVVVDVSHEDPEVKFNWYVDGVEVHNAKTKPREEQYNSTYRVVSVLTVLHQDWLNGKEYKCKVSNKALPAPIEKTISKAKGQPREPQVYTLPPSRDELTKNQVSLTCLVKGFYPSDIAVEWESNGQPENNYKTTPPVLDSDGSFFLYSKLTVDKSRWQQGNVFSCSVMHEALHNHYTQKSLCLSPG
light: DIQMTQSPSSLSASVGDRVTITCRASQDINSYLSWFQQKPGKAPKTLIYRVNRLVDGVPSRFSGSGSGNDYTLTISSLQPEDFATYYCLQYDAFPYTFGQGTKVEIKRTVAAPSVFIFPPSDEQLKSGTASVVCLLNNFYPREAKVQWKVDNALQSGNSQESVTEQDSKDSTYSLSSTLTLSKADYEKHKVYACEVTHQGLSSPVTKSFNRGEC
modifications: D5 linked through the engineered Cys in the heavy chain CH3 domain (5th to the last residue of SEQ ID NO: 54; EU/OU position 442); 2 mol D5/mol antibody
notes: also called huCD123-CysMab-D5; Cys-linked D5 conjugate
EC50 (read off the curve) [11]: ~80 pM | Fold-specificity IC50 control ADC/IC50 huCD123-CysMab-D5, EOL-1 cells [12]: 1000 fold | Fold-specificity IC50 control ADC/IC50 huCD123-CysMab-D5, HNT-34 cells [12]: 1100 fold | Fold-specificity IC50 control ADC/IC50 huCD123-CysMab-D5, KASUMI-3 cells [12]: 100 fold | Fold-specificity IC50 control ADC/IC50 huCD123-CysMab-D5, KG-1 cells [12]: 95 fold | Fold-specificity IC50 control ADC/IC50 huCD123-CysMab-D5, KO52 cells [12]: 100 fold | Fold-specificity IC50 control ADC/IC50 huCD123-CysMab-D5, MOLM-1 cells [12]: > 167 fold | Fold-specificity IC50 control ADC/IC50 huCD123-CysMab-D5, MV4-11 cells [12]: 2000 fold | Fold-specificity IC50 control ADC/IC50 huCD123-CysMab-D5, Molm-13 cells [12]: 2000 fold | Fold-specificity IC50 control ADC/IC50 huCD123-CysMab-D5, SHI-1 cells [12]: > 3.33 fold | Fold-specificity IC50 control ADC/IC50 huCD123-CysMab-D5, SKM-1 cells [12]: 57 fold | Fold-specificity IC50 control ADC/IC50 huCD123-CysMab-D5, THP-1 cells [12]: 167 fold | Fold-specificity IC50 control ADC/IC50 huCD123-CysMab-D5, UCSD-AML1 cells [12]: 400 fold | IC50, in vitro cytotoxicity on EOL-1 cells [12]: 2 pmol | IC50, in vitro cytotoxicity on HNT-34 cells [12]: 1 pmol | IC50, in vitro cytotoxicity on KASUMI-3 cells [12]: 3 pmol | IC50, in vitro cytotoxicity on KG-1 cells [12]: 60 pmol | IC50, in vitro cytotoxicity on KO52 cells [12]: 20 pmol | IC50, in vitro cytotoxicity on MOLM-1 cells [12]: 120 pmol | IC50, in vitro cytotoxicity on MV4-11 cells [12]: 1 pmol | IC50, in vitro cytotoxicity on Molm-13 cells [12]: 0.5 pmol | IC50, in vitro cytotoxicity on SHI-1 cells [12]: 6 pmol | IC50, in vitro cytotoxicity on SKM-1 cells [12]: 7 pmol | IC50, in vitro cytotoxicity on THP-1 cells [12]: 30 pmol | IC50, in vitro cytotoxicity on UCSD-AML1 cells [12]: 1 pmol

B8: muCD123-6 (antibody, mouse IgG1, kappa, V domains shown)
VH: EFQLQQSGPELVKPGASVKMSCKASGYIFTSSIMHWMKQKPGQGLEWIGYIKPYNDGTKYNEKFKGKATLTSDKSSSTANMELNSLTSEDSAVYYCAREGGNDYYDTMDYWGQGTSVTVSS
VL: DIKMTQSPSSMYASLGERVTITCKASQDINSYLSWFQQKPGKSPKTLIYRVNRLVDGVPSRFSGSGSGQDYSLTISSLEYEDMGIYYCLQYDAFPYTFGGGTKLEIKR
notes: Murine monoclonal antibody purified from hybridoma supernatant; also called CD123Mu-6; CD123 Mu-6
Kd [1]: 100 pM | Kd [4]: ~60 pM | Kd [2]: 70 pM | IC50, inhibition of IL-3 dependent proliferation of TF-1 cells [3]: 50 pM
